Measured values as given in article PMC5383425, “Differential CLE peptide perception by plant receptors implicated from structural and functional analyses of TDIF-TDR interactions” (PLoS ONE, 2017).
Square brackets hold non-standard residues; d marks the D form. Ends that are not written are not given here. Hyp = O=C(O)[C@@H]1C[C@@H](O)CN1

Columns and labels:
Test in all cases: ITC; 0.5–1 mM peptide titrated into 10–40 μM ecdTDR; 25°C; 10 mM sodium citrate, 100 mM NaCl, pH 5.5; fitted to one set of binding sites; MicroCal Auto-iTC200
Conditions in all cases: both partners purified
[1] = biological target: T1, ecdTDR mutant with all five N-terminal anchoring site-binding residues replaced by alanine (Arabidopsis thaliana, UniProt Q9FII5 30-642)
T1 chain: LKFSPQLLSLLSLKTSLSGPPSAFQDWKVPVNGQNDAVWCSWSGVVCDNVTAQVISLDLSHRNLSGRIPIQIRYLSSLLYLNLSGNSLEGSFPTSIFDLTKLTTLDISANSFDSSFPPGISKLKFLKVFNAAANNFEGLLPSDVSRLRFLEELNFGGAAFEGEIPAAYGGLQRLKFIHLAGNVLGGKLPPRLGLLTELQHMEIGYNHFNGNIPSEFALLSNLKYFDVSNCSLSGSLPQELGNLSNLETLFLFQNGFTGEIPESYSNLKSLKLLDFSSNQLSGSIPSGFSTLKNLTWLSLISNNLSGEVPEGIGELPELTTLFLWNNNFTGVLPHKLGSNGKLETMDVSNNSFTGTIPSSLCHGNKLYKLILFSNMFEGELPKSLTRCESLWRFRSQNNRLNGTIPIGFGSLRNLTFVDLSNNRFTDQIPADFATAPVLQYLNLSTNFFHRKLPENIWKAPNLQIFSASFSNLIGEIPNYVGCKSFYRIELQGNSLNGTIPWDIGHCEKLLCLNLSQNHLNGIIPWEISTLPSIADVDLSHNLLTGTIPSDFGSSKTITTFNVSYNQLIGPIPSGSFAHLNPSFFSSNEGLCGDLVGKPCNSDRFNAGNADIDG

ecdTDR R138E mutant = biological target: T2, ecdTDR R138E mutant (Arabidopsis thaliana, UniProt Q9FII5 30-642, R138E)
T2 construct: TDR/PXY of A. thaliana, extracellular domain, residues 30-642; source: High Five insect cells (baculovirus), secreted, purified as the wild type (Ni-NTA, size-exclusion chromatography)
T2 sequence (looked up): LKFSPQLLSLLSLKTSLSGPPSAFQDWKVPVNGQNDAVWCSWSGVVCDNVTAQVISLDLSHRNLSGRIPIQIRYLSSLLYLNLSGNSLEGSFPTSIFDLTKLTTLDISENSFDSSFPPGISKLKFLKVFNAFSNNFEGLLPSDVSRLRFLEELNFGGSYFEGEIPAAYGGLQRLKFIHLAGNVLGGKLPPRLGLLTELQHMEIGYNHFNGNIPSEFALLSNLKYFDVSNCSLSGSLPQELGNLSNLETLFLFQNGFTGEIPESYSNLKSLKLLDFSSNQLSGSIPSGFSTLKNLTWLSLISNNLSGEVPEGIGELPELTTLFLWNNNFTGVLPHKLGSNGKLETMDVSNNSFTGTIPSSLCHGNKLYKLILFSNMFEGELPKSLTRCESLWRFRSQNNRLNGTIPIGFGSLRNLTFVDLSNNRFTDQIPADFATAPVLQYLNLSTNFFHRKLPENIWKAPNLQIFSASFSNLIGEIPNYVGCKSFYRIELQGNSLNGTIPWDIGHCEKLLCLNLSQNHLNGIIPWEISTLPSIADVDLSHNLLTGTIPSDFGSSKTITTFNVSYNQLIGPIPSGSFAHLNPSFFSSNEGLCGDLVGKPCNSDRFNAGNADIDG

[2] = biological target: T3, ecdTDR F279/F281 double alanine mutant (Arabidopsis thaliana, UniProt Q9FII5 30-642, F279 to alanine | F281 to alanine)
T3 construct: TDR/PXY of A. thaliana, extracellular domain, residues 30-642; also called F279A/F281A; source: High Five insect cells (baculovirus), secreted, purified as the wild type (Ni-NTA, size-exclusion chromatography)
T3 sequence (looked up): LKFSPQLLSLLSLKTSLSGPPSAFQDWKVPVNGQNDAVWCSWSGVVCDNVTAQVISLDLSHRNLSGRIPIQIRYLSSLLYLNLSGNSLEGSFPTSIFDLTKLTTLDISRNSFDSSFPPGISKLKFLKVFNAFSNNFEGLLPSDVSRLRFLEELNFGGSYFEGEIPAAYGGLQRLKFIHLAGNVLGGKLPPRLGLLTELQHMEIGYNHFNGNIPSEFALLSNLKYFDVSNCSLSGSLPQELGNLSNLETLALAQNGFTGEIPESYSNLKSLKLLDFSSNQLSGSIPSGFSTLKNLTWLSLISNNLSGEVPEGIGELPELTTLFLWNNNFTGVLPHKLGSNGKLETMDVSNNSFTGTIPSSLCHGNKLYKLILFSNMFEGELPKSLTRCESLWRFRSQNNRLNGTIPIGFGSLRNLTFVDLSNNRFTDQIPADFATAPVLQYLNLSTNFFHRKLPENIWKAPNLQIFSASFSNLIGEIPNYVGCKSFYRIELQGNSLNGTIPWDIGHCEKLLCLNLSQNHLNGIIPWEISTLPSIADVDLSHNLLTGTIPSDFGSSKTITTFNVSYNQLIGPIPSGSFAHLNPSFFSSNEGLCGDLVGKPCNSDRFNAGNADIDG

B1: Tracheary Element Differentiation Inhibitory Factor (TDIF) peptide (peptide)
peptide: HEV[Hyp]SG[Hyp]NPISN
notes: TDIF, the 12-residue CLE peptide processed from CLE41 and CLE44 of A. thaliana; printed as HEV(Hyp)SG(Hyp)NPISN; numbers count on: the 12-residue peptide; CLE44 encodes the same peptide; also called wild type TDIF; wtTDIF; source: synthetic peptide (peptide 2.0)
fold decrease in affinity against wild-type ecdTDR [1]: 31.4 fold | binding result (ecdTDR R138E mutant): binds | fold decrease in binding against wild-type ecdTDR [2]: 8.6 fold
